B1: POU domain, class 2, transcription factor 1, residues 285 to 354; numbered along this chain, P14859 (parent)
chain: LEELEQFAKTFKQRRIKLGFTQGDVGLAMGKLYGNDFSQTTISRFEALNLSFKNMCKLKPLLEKWLNDAE

± gives the uncertainty stated by the source.

This series covers variants of B1. Nature of the series: abundance fitness (aPCA) (normalised: wild type 0, dead -1); higher = more abundant; growth selection in yeast, the domain comes from the species named. Conditions: Homo sapiens.
For the variant LEELEQFAKTFKQRRIKLGFTQGDLGLAMGKLYGNDFSQTTISRFEALNLSFKNMCKLKPLLEKWLNDAE [V25L], the abundance fitness was -0.349 ± 0.26.

As to LEELEQFAKTFKQRRIKLGFTQGDDGLAMGKLYGNDFSQTTISRFEALNLSFKNMCKLKPLLEKWLNDAE [V25D], the abundance fitness was -0.504 ± 0.25.

With LEELEQFAKTFKQRRIKLGFTQGDSGLAMGKLYGNDFSQTTISRFEALNLSFKNMCKLKPLLEKWLNDAE [V25S], the abundance fitness is -0.843 ± 0.1.

On to LEELEQFAKTFKQRRIKLGFTQGDFGLAMGKLYGNDFSQTTISRFEALNLSFKNMCKLKPLLEKWLNDAE [V25F], for which the abundance fitness is -0.372 ± 0.17.

LEELEQFAKTFKQRRIKLGFTQGDWGLAMGKLYGNDFSQTTISRFEALNLSFKNMCKLKPLLEKWLNDAE [V25W]: the abundance fitness is -0.645 ± 0.11.

For the variant LEELEQFAKTFKQRRIKLGFTQGDPGLAMGKLYGNDFSQTTISRFEALNLSFKNMCKLKPLLEKWLNDAE [V25P], the abundance fitness is -0.687 ± 0.09.

Consider LEELEQFAKTFKQRRIKLGFTQGDAGLAMGKLYGNDFSQTTISRFEALNLSFKNMCKLKPLLEKWLNDAE [V25A], for which the abundance fitness was -0.049 ± 0.064.

With LEELEQFAKTFKQRRIKLGFTQGDGGLAMGKLYGNDFSQTTISRFEALNLSFKNMCKLKPLLEKWLNDAE [V25G], the abundance fitness is -0.711 ± 0.12.

In the case of LEELEQFAKTFKQRRIKLGFTQGDIGLAMGKLYGNDFSQTTISRFEALNLSFKNMCKLKPLLEKWLNDAE [V25I], the abundance fitness is -0.094 ± 0.086.

On to LEELEQFAKTFKQRRIKLGFTQGDVGTAMGKLYGNDFSQTTISRFEALNLSFKNMCKLKPLLEKWLNDAE [L27T], for which the abundance fitness was -0.053 ± 0.067.

Turning to LEELEQFAKTFKQRRIKLGFTQGDVGCAMGKLYGNDFSQTTISRFEALNLSFKNMCKLKPLLEKWLNDAE [L27C], the abundance fitness was 0.039 ± 0.044.

LEELEQFAKTFKQRRIKLGFTQGDVGWAMGKLYGNDFSQTTISRFEALNLSFKNMCKLKPLLEKWLNDAE [L27W]: the abundance fitness is -0.106 ± 0.041.

Consider LEELEQFAKTFKQRRIKLGFTQGDVGNAMGKLYGNDFSQTTISRFEALNLSFKNMCKLKPLLEKWLNDAE [L27N], for which the abundance fitness is -0.13 ± 0.072.

For the variant LEELEQFAKTFKQRRIKLGFTQGDVGEAMGKLYGNDFSQTTISRFEALNLSFKNMCKLKPLLEKWLNDAE [L27E], the abundance fitness was -0.002 ± 0.066.

On to LEELEQFAKTFKQRRIKLGFTQGDVGMAMGKLYGNDFSQTTISRFEALNLSFKNMCKLKPLLEKWLNDAE [L27M], for which the abundance fitness was 0 ± 0.035.

Take LEELEQFAKTFKQRRIKLGFTQGDVGPAMGKLYGNDFSQTTISRFEALNLSFKNMCKLKPLLEKWLNDAE [L27P]: the abundance fitness is -0.31 ± 0.034.

In the case of LEELEQFAKTFKQRRIKLGFTQGDVGAAMGKLYGNDFSQTTISRFEALNLSFKNMCKLKPLLEKWLNDAE [L27A], the abundance fitness was 0.073 ± 0.056.

As for LEELEQFAKTFKQRRIKLGFTQGDVGKAMGKLYGNDFSQTTISRFEALNLSFKNMCKLKPLLEKWLNDAE [L27K], the abundance fitness is -0.052 ± 0.054.

Take LEELEQFAKTFKQRRIKLGFTQGDVGHAMGKLYGNDFSQTTISRFEALNLSFKNMCKLKPLLEKWLNDAE [L27H]: the abundance fitness is 0.049 ± 0.034.

For LEELEQFAKTFKQRRIKLGFTQGDVGYAMGKLYGNDFSQTTISRFEALNLSFKNMCKLKPLLEKWLNDAE [L27Y], the abundance fitness is -0.113 ± 0.058.

For LEELEQFAKTFKQRRIKLGFTQGDVGQAMGKLYGNDFSQTTISRFEALNLSFKNMCKLKPLLEKWLNDAE [L27Q], the abundance fitness was 0.003 ± 0.029.

As for LEELEQFAKTFKQRRIKLGFTQGDVGDAMGKLYGNDFSQTTISRFEALNLSFKNMCKLKPLLEKWLNDAE [L27D], the abundance fitness is -0.136 ± 0.07.

In the case of LEELEQFAKTFKQRRIKLGFTQGDVGVAMGKLYGNDFSQTTISRFEALNLSFKNMCKLKPLLEKWLNDAE [L27V], the abundance fitness worked out at 0.003 ± 0.026.

For the variant LEELEQFAKTFKQRRIKLGFTQGDVGFAMGKLYGNDFSQTTISRFEALNLSFKNMCKLKPLLEKWLNDAE [L27F], the abundance fitness amounted to 0.01 ± 0.038.

As for LEELEQFAKTFKQRRIKLGFTQGDVGRAMGKLYGNDFSQTTISRFEALNLSFKNMCKLKPLLEKWLNDAE [L27R], the abundance fitness was 0.016 ± 0.02.

In the case of LEELEQFAKTFKQRRIKLGFTQGDVGIAMGKLYGNDFSQTTISRFEALNLSFKNMCKLKPLLEKWLNDAE [L27I], the abundance fitness was -0.005 ± 0.035.

With LEELEQFAKTFKQRRIKLGFTQGTVGLAMGKLYGNDFSQTTISRFEALNLSFKNMCKLKPLLEKWLNDAE [D24T], the abundance fitness is -0.089 ± 0.027.

For the variant LEELEQFAKTFKQRRIKLGFTQGMVGLAMGKLYGNDFSQTTISRFEALNLSFKNMCKLKPLLEKWLNDAE [D24M], the abundance fitness is -0.11 ± 0.036.

Turning to LEELEQFAKTFKQRRIKLGFTQGEVGLAMGKLYGNDFSQTTISRFEALNLSFKNMCKLKPLLEKWLNDAE [D24E], the abundance fitness is -0.008 ± 0.053.

As to LEELEQFAKTFKQRRIKLGFTQGKVGLAMGKLYGNDFSQTTISRFEALNLSFKNMCKLKPLLEKWLNDAE [D24K], the abundance fitness is -0.124 ± 0.035.

Consider LEELEQFAKTFKQRRIKLGFTQGHVGLAMGKLYGNDFSQTTISRFEALNLSFKNMCKLKPLLEKWLNDAE [D24H], for which the abundance fitness was -0.06 ± 0.037.

For the variant LEELEQFAKTFKQRRIKLGFTQGPVGLAMGKLYGNDFSQTTISRFEALNLSFKNMCKLKPLLEKWLNDAE [D24P], the abundance fitness was -0.846 ± 0.033.

On to LEELEQFAKTFKQRRIKLGFTQGSVGLAMGKLYGNDFSQTTISRFEALNLSFKNMCKLKPLLEKWLNDAE [D24S], for which the abundance fitness is -0.097 ± 0.023.

For LEELEQFAKTFKQRRIKLGFTQGAVGLAMGKLYGNDFSQTTISRFEALNLSFKNMCKLKPLLEKWLNDAE [D24A], the abundance fitness was -0.058 ± 0.024.

In the case of LEELEQFAKTFKQRRIKLGFTQGWVGLAMGKLYGNDFSQTTISRFEALNLSFKNMCKLKPLLEKWLNDAE [D24W], the abundance fitness was -0.238 ± 0.035.

Regarding LEELEQFAKTFKQRRIKLGFTQGGVGLAMGKLYGNDFSQTTISRFEALNLSFKNMCKLKPLLEKWLNDAE [D24G], the abundance fitness is -0.091 ± 0.041.

Take LEELEQFAKTFKQRRIKLGFTQGVVGLAMGKLYGNDFSQTTISRFEALNLSFKNMCKLKPLLEKWLNDAE [D24V]: the abundance fitness was -0.218 ± 0.027.

Consider LEELEQFAKTFKQRRIKLGFTQGYVGLAMGKLYGNDFSQTTISRFEALNLSFKNMCKLKPLLEKWLNDAE [D24Y], for which the abundance fitness was -0.164 ± 0.045.
